Molecular target: the molecule itself
Test: cryo-EM structure; E1RF complex: 60 uM E1 assembled with 10 uM fork DNA, no nucleotide, purified by gel filtration (10 mM Tris-Cl pH 8.0, 225 mM NaCl, 2 mM DTT, 0.1 mM PMSF, 1 mM EDTA); hexamer on DNA; Titan Krios 300 kV, K3

B1: Bovine papillomavirus (BPV) E1 helicase, full-length, wild type (enzyme)
chain: MANDKGSNWDSGLGCSYLLTEAECESDKENEEPGAGVELSVESDRYDSQDEDFVDNASVFQGNHLEVFQALEKKAGEEQILNLKRKVLGSSQNSSGSEASETPVKRRKSGAKRRLFAENEANRVLTPLQVQGEGEGRQELNEEQAISHLHLQLVKSKNATVFKLGLFKSLFLCSFHDITRLFKNDKTTNQQWVLAVFGLAEVFFEASFELLKKQCSFLQMQKRSHEGGTCAVYLICFNTAKSRETVRNLMANTLNVREECLMLQPAKIRGLSAALFWFKSSLSPATLKHGALPEWIRAQTTLNESLQTEKFDFGTMVQWAYDHKYAEESKIAYEYALAAGSDSNARAFLATNSQAKHVKDCATMVRHYLRAETQALSMPAYIKARCKLATGEGSWKSILTFFNYQNIELITFINALKLWLKGIPKKNCLAFIGPPNTGKSMLCNSLIHFLGGSVLSFANHKSHFWLASLADTRAALVDDATHACWRYFDTYLRNALDGYPVSIDRKHKAAVQIKAPPLLVTSNIDVQAEDRYLYLHSRVQTFRFEQPCTDESGEQPFNITDADWKSFFVRLWGRLDLIDEEEDSEEDGDSMRTFTCSARNTNAVD
notes: Replication protein E1 of bovine papillomavirus (BPV), full length; C-terminal acidic tail is residues 579-605; Hexamer assembled on a synthetic DNA replication fork (30 bp dsDNA, 3' T20, 13-base 5' tail) without nucleotide; also called E1 protein; subunits A-F of the E1RF complex; source: expressed as a GST fusion protein, purified (glutathione sepharose, thrombin cleavage, cation and anion …)
Q: With B1 as the protein, how does the “stoichiometry N” value read?
A: 6

Reference: article PMC8452682, “Unwinding of a DNA replication fork by a hexameric viral helicase” (Nature Communications, 2021)
